From patent US20180086836A1 (GLENMARK PHARMACEUTICALS S A, published 2018) come the findings set out here.

For test [1], the target named is T1, recombinant cynomologus N-terminal CCR6 peptide Fc (cynomolgus monkey; human).
T1 construct: It differs from the human construct only in the CCR6 N-terminus; also called Cyno CCR6-Fc; cynoCCR6-Nter-Fc
The test can be described thus: SPR (BIAcore 2000), Fc-fused cynomolgus CCR6 N-terminal peptide immobilised on CM5, antibody as analyte, bivalent analyte model. On the procedure:
(§1) Kinetic binding affinity constants (KD) were measured on Fc-fused huCCR6 N-terminal and cynoCCR6 N-terminal peptides with the 4H11 VH5/VL1 IgG4hs antibody as analyte. Same measurements were performed using the 4H11 VH5/VL1 IgG1 antibody and chimeric 4H11 antibody for comparison. Measurements were conducted on a BIAcore 2000 (GE Healthcare—BIAcore, GE Healthcare Europe GmbH, Glattbrugg, Switzerland) at room temperature, and analyzed with the BiaEvaluation software (BIAcore; v4.1, GE Healthcare Europe GmbH) using a bivalent analyte kinetic affinity model.
(§2) A CM5 research grade sensor chip (GE Healthcare Europe GmbH; ref. BR-1000-14) was activated by injecting 35 μl of a 1:1 N-hydroxysulfosuccinimide (NHS)/1-Ethyl-3-[3-dimethylaminopropyl]carbodiimide Hydrochloride (EDC) solution (v/v; 5 μl/min flow-rate; on flow paths 1 and 2). Fc-fused human or cynomologus CCR6 N-terminal peptides were diluted to a final concentration of 25 nM in acetate buffer pH 4.5 (GE Healthcare Europe GmbH, BR-1003-50; one pH unit below pI) and subsequently immobilized on the previously activated CM5 sensor chip by injecting 20 μl on both flow path 1 and 2 (5 μl/min); this corresponded to approximately 300 response units (RUs). The human or cynomologus CCR6 N-terminal peptides coupled CM5 sensor chip was then deactivated by injecting 35 μl of ethanolamine solution (5 μl/min). […]
Background: In SPR one partner is held on a chip, and binding of the other changes the refractive index at the surface.

The target of test [2] is T2, recombinant human N-terminal CCR6 Fc (human).
T2 construct: also called human CCR6-Fc; hsCCR6-Nter-Fc
The test can be described thus: SPR (BIAcore 2000), Fc-fused peptide immobilized on CM5 chip, antibody as analyte, bivalent analyte model. On the procedure: as §1, §2

For test [3], the target named is T1, recombinant cynomologus N-terminal CCR6 …. The description is as above. On the procedure:
as §1, §2

In test [4] the target is T2, recombinant human N-terminal CCR6 Fc. The test can be described thus: direct ELISA, Fc fusion coated at 2 µg/ml, anti-human F(ab')2-HRP. On the procedure: (§3) FIG. 8: Direct binding ELISA on immobilized recombinant human N-terminal CCR6 Fc. Binding of humanized 4H11 H5L1 antibody on human N terminus fragment of CCR6 was measured by direct ELISA. Various concentrations (ranging from 10 to 0.00006 μg/ml) of humanized 4H11 H5L1 in IgG1 and IgG4HS backbones were incubated with 2 μg/ml of either recombinant human N terCCR6-Fc tagged protein (FIG. 8A) or recombinant cynomologus N-terminal peptide Fc (FIG. 8B), coated overnight at 4° C. in a 96-well plate. Binding of humanized 4H11 H5L1 antibody to Nter CCR6-Fc protein was detected by horseradish peroxidase (HRP)-conjugated anti-human (Fab)′2-specific antibody.
(§4) A binding ELISA was performed to test the reactivity of 4H11 VH5/VL1 IgG1 and 4H11 VH5/VL1 IgG4HS antibodies on peptides consisting of the N-terminal region of CCR6 from human and cynomologus species. Briefly, 96 well-microtiter plates (Costar USA, distributor VWR AG, Nyon, Switzerland) were coated with 100 μl of recombinant human and cynomologus N-terminus peptide-Fc at 2 μg/ml in PBS. Plates were incubated overnight at 4° C. and were then blocked with PBS 2% BSA (Bovine Serum Albumine, PAA Laboratories, Pasching, Austria) at room temperature (RT) for one hour. The blocking solution was removed and various concentrations of 4H11 VH5/VL1 IgG1 and 4H11 VH5/VL1 IgG4HS were added. The plates were incubated at RT for 1 hour, then washed six times with PBS 0.01% Tween-20 (Sigma-Aldrich Chemie GmbH, Buchs, Switzerland) and a goat-anti human Ig F(ab′)2 fragment specific-HRP (Jackson ImmunoResearch Europe Ltd, Newmarket, UK). After washing, the plates were incubated with TMB substrate (Bio-Rad Laboratories AG, Reinach, Switzerland) to reveal antibody binding. The reaction was stopped by adding 2M H₂SO₄ and the optical density was read at 450 nm (OD 450 nm) on a Synergy HT2 spectrophotometer (Biotek, USA; distributor: WITTEC AG, Littau, Switzerland).

Test [5] has as its target T1, recombinant cynomologus N-terminal CCR6 …. The description is as above. On the procedure:
as §3, §4

The target in a further test is T3, human CCR6 (human, UniProt P51684 1-374).
T3 construct: Full length human CCR6 on transfected BAF or CHO cells, or native on human PBMCs; also called hsCCR6; CCR6 receptor
T3 sequence: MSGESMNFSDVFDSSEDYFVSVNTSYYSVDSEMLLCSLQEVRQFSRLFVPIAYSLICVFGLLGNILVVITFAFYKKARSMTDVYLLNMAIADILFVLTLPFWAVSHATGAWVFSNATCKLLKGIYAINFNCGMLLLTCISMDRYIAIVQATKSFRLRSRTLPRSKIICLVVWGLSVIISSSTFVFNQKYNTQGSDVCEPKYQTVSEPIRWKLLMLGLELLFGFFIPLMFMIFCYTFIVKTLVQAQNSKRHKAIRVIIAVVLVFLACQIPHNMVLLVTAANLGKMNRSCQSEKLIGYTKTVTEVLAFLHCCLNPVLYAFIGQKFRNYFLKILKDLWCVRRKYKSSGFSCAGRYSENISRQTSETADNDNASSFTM
The test can be described thus: flow cytometry blocking assay on CCR6-transfected BAF cells; blocked ligand: recombinant human CCL20 at 0.5 µg/ml, detected with biotinylated anti-CCL20 and streptavidin-APC. On the procedure:
Cells transfected with CCR6 were incubated at 4° C. for 20 minutes with humanized 4H11-VH5/VL1 serially diluted (from 100 to 0.00001 μg/ml) in FACS buffer containing 0.1% of azide. Cells were centrifuged and incubated at 4° C. for 20 minutes with 0.5 μg/ml of recombinant human CCL20. To detect CCL20 bound to CCR6, cells were incubated with a biotinylated goat anti-human CCL20, followed by incubation with Allophycocyanin (APC)-labelled Streptavidin diluted at 1/100 in FACS buffer containing 0.1% of azide. To evaluate blocking potential of humanized 4H11 VH5/VL1 IgG4HS, percentage of CCL20 was measured at each concentration of antibody. Maximum binding activity of CCL20 to CCR6 was calculated as a percentage of that seen for the isotype control.
To determine whether 4H11 VH5/VL1 IgG4HS neutralizes CCR6-mediated biological function through a direct inhibition of CCL20-CCR6 interaction, an assay using flow cytometry approach was set up. Briefly, BAF cells transfected with CCR6 were counted and diluted at 1*10⁶ cells/ml in FACS buffer containing 0.1% of azide. […] Then, CCL20 was detected using a biotinylated anti-human CCL20 (R&D Systems, clone BAF360) followed by allophycocyanin (APC)-labelled streptavidin diluted in FACS buffer+0.1% azide at 1 μg/ml and 1/100, respectively. Cells were washed two times in FACS buffer, 0.1% azide and samples were analysed by flow cytometry. […]

Test [6] has as its target T2, recombinant human N-terminal CCR6 Fc. The test can be described thus: SPR (BIAcore 2000), Fc-fused human CCR6 N-terminal peptide immobilised on CM5, antibody as analyte, bivalent analyte model. On the procedure: as §1, §2

B1: 4H11 VH5/VL1 IgG4HS antibody (antibody, V domains shown)
VH: EVQLVESGGGLVQPGGSLRLSCAASGFSFSDYYMYWVRQAPGKGLEWVSYITNGGITYYPDSVKGRFTISRDNSKNTLYLQMNSLRAEDTAVYYCTSPLRGAWFAYWGQGTLVTVSS
VL: DVVMTQSPLSLPVTLGQPASISCRSSQSIVHSNGNTYLEWYQQRPGQSPRLLIYKVSNRFSGVPDRFSGSGSGTDFTLKISRVEAEDVGVYYCFQGSHVPLTFGQGTKLEIK
notes: also called humanized 4H11 H5L1 IgG4HS; humanized 4H11-VH5/VL1
As usually defined, the koff is the rate constant with which the complex falls apart. By kon is commonly meant the rate constant with which the complex forms. One may read the EC50 (read off the curve) as the concentration that produces a half-maximal response. For B1, the values for the koff in test [1] and in test [6] were 0.0015 s⁻¹ and 0.000798 s⁻¹, respectively. For the same molecule, the association rate constant (kon) in test [1] was determined as 320000 M⁻¹ s⁻¹; in test [6] it was 510000 M⁻¹ s⁻¹. For the same molecule, the figures for the Kd in test [2] and in test [3] were 1.56 nM and 4.67 nM, respectively. The “EC50 (read off the curve)” value is roughly 0.06 µg/mL in test [4] and roughly 0.2 µg/mL in test [5]. In the test with human CCR6, the “IC50 (read off the curve)” value is roughly 0.5 µg/mL.
